Measured values taken from patent US20180155451A1 (published 2018).

T1: FcγRIIa H (FcγRIIa, type H allotype, His at position 131), extracellular domain with C-terminal His tag (human, UniProt P12318 34-217)
T1 construct: extracellular domain; Soluble receptor expressed in FreeStyle293 cells; analyte in Biacore; also called FcgRIIa H; 2aH; not shown: C-terminal His tag
T1 sequence (looked up): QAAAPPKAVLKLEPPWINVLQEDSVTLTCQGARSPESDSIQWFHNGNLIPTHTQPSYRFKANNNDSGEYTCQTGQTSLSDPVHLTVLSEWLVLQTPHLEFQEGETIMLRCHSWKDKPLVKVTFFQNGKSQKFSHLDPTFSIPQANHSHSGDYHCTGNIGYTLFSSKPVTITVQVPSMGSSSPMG

T2: FcγRIIb, extracellular domain with C-terminal His tag (human, UniProt P31994 43-217)
T2 construct: extracellular domain; Soluble receptor expressed in FreeStyle293 cells; analyte in Biacore; also called FcgRIIb; 2b; not shown: C-terminal His tag
T2 sequence (looked up): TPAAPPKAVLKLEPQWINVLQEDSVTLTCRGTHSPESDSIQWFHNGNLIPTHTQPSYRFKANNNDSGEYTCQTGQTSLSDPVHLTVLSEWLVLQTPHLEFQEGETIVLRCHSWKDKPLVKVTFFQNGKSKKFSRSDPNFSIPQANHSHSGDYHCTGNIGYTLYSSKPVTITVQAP

B1: GpH7-A5/GpH7-B3 variant D270_20W/GpL16-k0 (antibody, human IgG1, kappa)
heavy 1: not shown
heavy 2: not shown
light: DIVMTQSPLSLPVTPGEPASISCQASESLVHSNRNTYLHWYLQKPGQSPQLLIYKVSNRFSGVPDRFSGSGSGTDFTLKISRVEAEDVGVYYCSQNTHVPPTFGQGTKVEIERTVAAPSVFIFPPSDEQLKSGTASVVCLLNNFYPREAKVQWKVDNALQSGNSQESVTEQDSKDSTYSLSSTLTLSKADYEKHKVYACEVTHQGLSSPVTKSFNRGEC
notes: Heterodimerized IgG1; mutation only in the GpH7-B3 chain; also called He Ab
B2: GpH7-A5/GpH7-B3 variant E269_11K/GpL16-k0 (antibody, human IgG1, kappa)
heavy 1: not shown
heavy 2: not shown
light: B1 light
notes: as for B1
B3: GpH7-A5/GpH7-B3 variant S298_20W/GpL16-k0 (antibody, human IgG1, kappa)
heavy 1: not shown
heavy 2: not shown
light: B1 light
notes: as for B1
B4: GpH7-A5/GpH7-B3 variant E269_16H/GpL16-k0 (antibody, human IgG1, kappa)
heavy 1: not shown
heavy 2: not shown
light: B1 light
notes: as for B1
B5: GpH7-A5/GpH7-B3 variant S298_03V/GpL16-k0 (antibody, human IgG1, kappa)
heavy 1: not shown
heavy 2: not shown
light: B1 light
notes: as for B1
B6: GpH7-A5/GpH7-B3 variant Q295_05P/GpL16-k0 (antibody, human IgG1, kappa)
heavy 1: not shown
heavy 2: not shown
light: B1 light
notes: as for B1
B7: GpH7-A5/GpH7-B3 variant E269_12R/GpL16-k0 (antibody, human IgG1, kappa)
heavy 1: not shown
heavy 2: not shown
light: B1 light
notes: as for B1
B8: GpH7-A5/GpH7-B3 variant E269_13S/GpL16-k0 (antibody, human IgG1, kappa)
heavy 1: not shown
heavy 2: not shown
light: B1 light
notes: as for B1
B9: GpH7-A5/GpH7-B3 variant Q295_20W/GpL16-k0 (antibody, human IgG1, kappa)
heavy 1: not shown
heavy 2: not shown
light: B1 light
notes: as for B1
B10: GpH7-A5/GpH7-B3 variant Y300_07I/GpL16-k0 (antibody, human IgG1, kappa)
heavy 1: not shown
heavy 2: not shown
light: B1 light
notes: as for B1
B11: GpH7-A5/GpH7-B3 variant S298_19Q/GpL16-k0 (antibody, human IgG1, kappa)
heavy 1: not shown
heavy 2: not shown
light: B1 light
notes: as for B1
B12: GpH7-A5/GpH7-B3 variant E269_18N/GpL16-k0 (antibody, human IgG1, kappa)
heavy 1: not shown
heavy 2: not shown
light: B1 light
notes: as for B1
B13: GpH7-A5/GpH7-B3 variant S298_14T/GpL16-k0 (antibody, human IgG1, kappa)
heavy 1: not shown
heavy 2: not shown
light: B1 light
notes: as for B1
B14: GpH7-A5/GpH7-B3 variant Q295_13S/GpL16-k0 (antibody, human IgG1, kappa)
heavy 1: not shown
heavy 2: not shown
light: B1 light
notes: as for B1
B15: GpH7-A5/GpH7-B3 variant S298_07I/GpL16-k0 (antibody, human IgG1, kappa)
heavy 1: not shown
heavy 2: not shown
light: B1 light
notes: as for B1
B16: GpH7-A5/GpH7-B3 variant E269_04F/GpL16-k0 (antibody, human IgG1, kappa)
heavy 1: not shown
heavy 2: not shown
light: B1 light
notes: as for B1
B17: GpH7-A5/GpH7-B3 variant E269_03V/GpL16-k0 (antibody, human IgG1, kappa)
heavy 1: not shown
heavy 2: not shown
light: B1 light
notes: as for B1
B18: GpH7-A5/GpH7-B3 variant P271_15Y/GpL16-k0 (antibody, human IgG1, kappa)
heavy 1: not shown
heavy 2: not shown
light: B1 light
notes: as for B1
B19: GpH7-A5/GpH7-B3 variant Q295_07I/GpL16-k0 (antibody, human IgG1, kappa)
heavy 1: not shown
heavy 2: not shown
light: B1 light
notes: as for B1

What follows are binders tested against T1, FcγRIIa H (FcγRIIa, type H allotype, …) (assay: SPR (Biacore), captured antibody, FcγR as analyte).

He/Con_2aH | Binder
60.2 relative, GpH7-A5/GpH7-B3/GpL16-k0 = 100 | B1
51.1 relative, GpH7-A5/GpH7-B3/GpL16-k0 = 100 | B2
49.9 relative, GpH7-A5/GpH7-B3/GpL16-k0 = 100 | B3
59 relative, GpH7-A5/GpH7-B3/GpL16-k0 = 100 | B4
85.1 relative, GpH7-A5/GpH7-B3/GpL16-k0 = 100 | B5
103 relative, GpH7-A5/GpH7-B3/GpL16-k0 = 100 | B6
46.8 relative, GpH7-A5/GpH7-B3/GpL16-k0 = 100 | B7
70 relative, GpH7-A5/GpH7-B3/GpL16-k0 = 100 | B8
55.6 relative, GpH7-A5/GpH7-B3/GpL16-k0 = 100 | B9
108 relative, GpH7-A5/GpH7-B3/GpL16-k0 = 100 | B10
91 relative, GpH7-A5/GpH7-B3/GpL16-k0 = 100 | B11
64.4 relative, GpH7-A5/GpH7-B3/GpL16-k0 = 100 | B12
98.5 relative, GpH7-A5/GpH7-B3/GpL16-k0 = 100 | B13
69.4 relative, GpH7-A5/GpH7-B3/GpL16-k0 = 100 | B14
86.9 relative, GpH7-A5/GpH7-B3/GpL16-k0 = 100 | B15
68.5 relative, GpH7-A5/GpH7-B3/GpL16-k0 = 100 | B16
67.5 relative, GpH7-A5/GpH7-B3/GpL16-k0 = 100 | B17
64.6 relative, GpH7-A5/GpH7-B3/GpL16-k0 = 100 | B18
102 relative, GpH7-A5/GpH7-B3/GpL16-k0 = 100 | B19

Each binder was assayed against T2, FcγRIIb, extracellular domain with … (assay: SPR (Biacore), captured antibody, FcγR as analyte).

He/Con_2b | Binder
34.7 relative, GpH7-A5/GpH7-B3/GpL16-k0 = 100 | B1
17.8 relative, GpH7-A5/GpH7-B3/GpL16-k0 = 100 | B2
41.1 relative, GpH7-A5/GpH7-B3/GpL16-k0 = 100 | B3
38.5 relative, GpH7-A5/GpH7-B3/GpL16-k0 = 100 | B4
64.5 relative, GpH7-A5/GpH7-B3/GpL16-k0 = 100 | B5
67.5 relative, GpH7-A5/GpH7-B3/GpL16-k0 = 100 | B6
25.2 relative, GpH7-A5/GpH7-B3/GpL16-k0 = 100 | B7
47.8 relative, GpH7-A5/GpH7-B3/GpL16-k0 = 100 | B8
44.4 relative, GpH7-A5/GpH7-B3/GpL16-k0 = 100 | B9
74.5 relative, GpH7-A5/GpH7-B3/GpL16-k0 = 100 | B10
73.3 relative, GpH7-A5/GpH7-B3/GpL16-k0 = 100 | B11
44.8 relative, GpH7-A5/GpH7-B3/GpL16-k0 = 100 | B12
77.9 relative, GpH7-A5/GpH7-B3/GpL16-k0 = 100 | B13
56.9 relative, GpH7-A5/GpH7-B3/GpL16-k0 = 100 | B14
70.6 relative, GpH7-A5/GpH7-B3/GpL16-k0 = 100 | B15
45 relative, GpH7-A5/GpH7-B3/GpL16-k0 = 100 | B16
45.1 relative, GpH7-A5/GpH7-B3/GpL16-k0 = 100 | B17
52.3 relative, GpH7-A5/GpH7-B3/GpL16-k0 = 100 | B18
84.3 relative, GpH7-A5/GpH7-B3/GpL16-k0 = 100 | B19

What follows are binders tested against T1, FcγRIIa H (FcγRIIa, type H allotype, …) (assay: ratio of He/Con_2aH to He/Con_2b (FcγRIIa H over FcγRIIb), SPR).

He_2aH/2b (IIaH/IIb) | Binder
1.74 | B1
2.87 | B2
1.21 | B3
1.53 | B4
1.32 | B5
1.53 | B6
1.86 | B7
1.46 | B8
1.25 | B9
1.45 | B10
1.24 | B11
1.44 | B12
1.26 | B13
1.22 | B14
1.23 | B15
1.52 | B16
1.49 | B17
1.24 | B18
1.21 | B19
